Measurements as given in a protein production outcome set (Wang et al. 2014).

Assay: label from the status in PepcDB records

Sequence	protein production
MSLEKLKLIGDERLDYLLAENLRIIQSPSVFSFSIDAVLLAKFSYLPIRKGKIIDLCSGNGIIPLLLSTRTKAKIVGVEIQERLADMAKRSVAYNQLEDQIEIIEYDLKKITDLIPKERADIVTCNPPYFATPDTSLKNTNEHFRIARHEVMCTLEDTIRVAASLLKQGGKANFVHRPERLLDIIDIMRKYRLEPKRIQFVHPRSDREANTVLVEGIKDGKPGVKYVPPVIVYDELGEYTPVIKEILYGESEGHHHHHH	not failed
MNYRNKAFLKYEEDYFIERIIKALKDYEEIIIISNNPEEYKEFGLKVFKDIYPSQGPLSGIHSALNHIKNDYCLVVACDMPFINKDVVNYLGNIKEDYEILIPKFQERLQPLCAIYKKSCKDIMEKELINNSNKLIKTCFKFSMKVVEEFPFIEKVHKKEIKNFYNINTVDEYEDLIKKKEILEHHHHHH	failed
MTQKEISIIHPRPSSIVAALYTLRDLNVDVAILHGPPGCSFKHARLLEEDGIHVVTTGLDENGFVFGGHDKLVQVINKSIELFNPKILGVVGTCASMIIGEEMHEAVLEANPDIPVIEVEVHAGYHNNTKGVIFALESALDAGIIDHKEFERQEYLEHHHHHH	not failed
MTHNHHHQAVDNLLNVFSRASHDLTVVHSKLDKEFQQMYPANANPMKLIQRIKKLQEDVTLLKHQCLDLLSAKQDLIDKAQTTLVGNCNLIQKMNASLGESTNGDTDDALADFNQIIDEWTMQVRSRTVGETEDADKEDINKMLFSAICHTN	failed
MACFMALVLARFGFGFCMLLAALVLLAAATLLATRLVGWAVRAFALERSQALASGVAIFILVALALWGCHAVGEVLYGAIGATALVGGAPHWLAGNSHVSAAALMGATTAAAMLAGGPAFWRWLRARRAAAAEQPAPRKAAPPKGAKPAARAAKAAAKTQIAPRGQRIPWLGWTAFFLLFIGAAVLAFAYIVAPIEAGASGLRLEHATRARPVYLAGLTLLGGGAFFLLAWLSRRRLPGD	failed
ALIAGHFADPFSVLGMHRTDAGLEVRALLPDATDVWVIEPKTGRKVGKLECLDSRGFFSGVLPRRKNAFRYQLAVTWHGQQNLIDDPYRFGPLLQ	failed
MSENLTMSELMDSFELKHFHKGEIVKGKVISVKNDEIIVNIGHFADGVVPRNEISNDKNFDINSINVDDDIFVMVLSGDDGEGNVLLSKKRADAIKVCDDLKEAFEEEKSIKVSLKEVVKGGIVGDFNGLRVFMPASQCAGRRIENLEELVGKTLEVRVIEFNKENRKVVVSRRVIDEEIRNNEKKALWSSIKEGEKRKGKVTRLAKFGAFVDIGGVEGLVHLSDMSWSRVHKPEEVVSVGDEVEVFVSEVDMDRERIALSLKDVIKNPWETLEGLKVGNVVLGKVTNFIKVGAFVEVLPGIEGLVHISEITDENIAKPSDILELGQEVKVKILNIDDENKKMSLSIKDAVETSNEYMQYNDEEEGYSLADLFKGLNLLEHHHHHH	not failed
MAENAWVRVCALQELPELGARVLDVEGLPPIAIFRTASDQVFALRDRCPHKGGPLSQGIVAGETVTCPLHGWAIALQSGQACAPDVGCAPRYPVKVEAGAVWIVLQPVLQADAVAEPAALEHHHHHH	failed
MFEYRCSSIDWKPSPVVALATSADGSQVAAAREDGSLELWLVSPGASSWHCQLIIHGDPKSRISHLAWFGTGSKGSSSARLFSSSIDGSISEWDLFDLKQKVVLDSIGFSIWQIALAPISIEAESKEAKLIQNGYLSEKSDDEEESGVEDDSELDELDEKVEALDRHLAAACDDGCVRIYYISESDKLTYYRSLPRVTGRALSVTWSADAQRIFSGSSDGLIRCWDANLCHEVYRITVGLGGLGNGSELCIWSLLSLRYGVLVSGDSTGSVQFWDSQHGTLLQAHSNHKGDVNALAASPSHNRVFSAGADGQVILYKLSGGTSRSQDFKPSSAQKWDYIGCVRAHTHDIRALTVAVPISWEGSIPDRNAKVTSPKQRRKEPAGFSYHKWAHLGVPMLISAGDDAKLYAYSVQEFTKFPPHDICPAPQRVPMQMVHNTVFNQTSLLLVQDSCSLDILRIHISNDSSGRVSTKPLVRVKSKDARKIICSAISNTGSLFAYSDQVRPSLFELKKNKIGKNPWSANRKRLPNLPFAHSMVFSCDCSRLIIAGHDRRIYIVDVGSMELLHSFTPRQEGQEGESPPHEPPITKLYTSSNDDWLAAINCFGDIYVFNLETQRQHWFISRLDGASVAAAGFHPRDNNVIVISTSSNQVFALDVEARELSKWSLLQTFCLPKSYQNFPGEVVGLSFSPSPCSSSVIIYSSRAKCLIEFGKPAEQDEDTDTPCNLSEKLEGKLASISMKLGNGAQKRRLEEYQKESKSNKRKKFEMVTSKHPVLYLRHLSKSAILVIEKPWMEVIKNLDTQPVHRHIFGT	failed
MLKLTPLLLAIAYGFLMYQFSVWRTKRMLDAQSRPLDEPEILALARRMAAALDLPTVKVSVFEVDPVNGLAAPDGRIFLTRGFLKKYRAGEVTAEELASVIAHELGHVALGHSRRRMIDFTGQNAVLMMLGAVLNRFVPFAGIWIARLLTSALSARLSRRDEHEADAYASALLVKAGIGTEPQKSLFRKLHRWSGMNSSAVPAWLMSHPVTDERIRRIEEREARWIEGLEHHHHHH	failed
MKQQLESFIETTKPSALVADMFFPWATESAEKLGVPRLVFHGTSFFSLCCSYNMRIHKPHKKVATSSTPFVIPGLPGDIVITEDQANVAKEETPMGKFMKEVRESETNSFGVLVNSFYELESAYADFYRSFVAKRAWHIGPLSLSNRELGEKARRGKKANIDEQECLKWLDSKTPGSVVYLSFGSGTNFTNDQLLEIAFGLEGSGQSFIWVVRKNENQGDNEEWLPEGFKERTTGKGLIIPGWAPQVLILDHKAIGGFVTHCGWNSAIEGIAAGLPMVTWPMGAEQFYNEKLLTKVLRIGVNVGATELVKKGKLISRAQVEKAVREVIGGEKAEERRLWAKKLGEMAKAAVEEGGSSYNDVNKFMEELNGRK	failed
MRNTDDYIIFYHLVEQGSFSSAARHMELTKSVVSKRIAKLEQELGVQLLYRTTRTLTLTEAGQSFFVHAKAVYKAVATAEESIVGLGKNLSGNIKITVPTISGELILPGVISEFNDKYPDINIDMELDNRFVDIVNERFDLAIRTGMLPDSSLIARKLVDANWVVCASPKYLAKHGIPKQPIELTKHNCLVYSYQETGAREWAFKAGDKMYQVTVDGNLCTNNSSALRNVALLGQGVIYVPRVLVYEDLKQGSLIQLFKEETAKCLGIYAVYPYTRQQPEKIKIFIDHLYNSFQSQNHRF	failed
MKVFDVHKFDMKKEQDFLQVQFNLKNRINLSPTIHPDSINTGAGVDLAYWEQDGEPYGVCCIIVIDADTKEVIEKVHSMGRISVPYVSGFLAFRELPLIIEAAKKLETEPDVFLFDGNGYLHYNHMGVATHAAFFLGKPTIGIAKTYLKIKGCDFVTPEIEVGAYTDIIIDGEVYGRALRTRRDVKPIFLSCGNYIDLDSSYQITMSLINQESRLPIPVRLADLETHVLRTFYQKNHVLEHHHHHH	not failed
MQEESHIEEVEIQNKLEVAPALISVHPSQKSVAVAVGSDLRIFDLIENCPVSLVDESDGPIRKESIRAIRYSTSGKLFVSAGDDKLVKIWSADSWRCLNTVCSEKRVSAVAISSDDSHVCYADKFGVVWVIELDGINDGKTLPSKKGALLLSHYCSIITSLEFSPDGRYILSADRDFKIRVTVFPKKPLEGAHEIQSFCLGHSEFITCTAFVSTPELTQGYLMSGSGDSTVRLWDITSGSLLDTCEVSTVAGHAESNENESPTQVTVTDICAIPNSSLAAVAIQSFQGIFLLSCDLTAHTLSITKVIKIPGESFIPTSIAVSASSRLLWMVSGASNLPGSNHPGFSRVRVISCLETESSSILEDEQIPGGTKLLEQLQGKVTIEESVMSAAAEAVRAAMSSLLMKKQYSEEKREFRKRTRNDKKTTR	failed
MERKINRREKEKEYEGKHNSLEDTDQGKNCKSTLMTLNVGGYLYITQKQTLTKYPDTFLEGIVNGKILCPFDADGHYFIDRDGLLFRHVLNFLRNGELLLPEGFRENQLLAQEAEFFQLKGLAEEVKSRWEKEQLTPRETTFLEITDNHDRSQGLRIFCNAPDFISKIKSRIVLVSKSRLDGFPEEFSISSNIIRFKYFIKSENGTRLVLKEDNTFVCTLETLKFEAIMMALKCGFRLLTSLDCSKGSIVHSDALHFIK	not failed
